Here are results for 1 molecule from article PMC3948464 (Nature Communications, 2014).

The target of this test is GST-AK2 (glutatione S-transferase-adenylate kinase 2) (human, UniProt P54819 1-239). The test can be described thus: SEC. In general terms: In gel filtration, larger molecules generally elute earlier.

B1: His-DUSP26 (enzyme)
chain: MCPGNWLWASMTFMARFSRSSSRSPVRTRGTLEEMPTVQHPFLNVFELERLLYTGKTACNHADEVWPGLYLGDQDMANNRRELRRLGITHVLNASHSRWRGTPEAYEGLGIRYLGVEAHDSPAFDMSIHFQTAADFIHRALSQPGGKILVHCAVGVSRSATLVLAYLMLYHHLTLVEAIKKVKDHRGIIPNRGFLRQLLALDRRLRQGLEA
With B1, the binding result is “binds”.
